Target: nsp12;nsp7;nsp8 (SARS-CoV-2;SARS-CoV-2;SARS-CoV-2, UniProt P0DTD1;P0DTD1;P0DTD1 4393-5324;3860-3942;3943-4140, ||)
Experiment: size exclusion chromatography; 20 mM Na-HEPES pH 7.4, 100 mM NaCl, 1 mM MgCl2, 1 mM TCEP; NMR: 50 mM NaP, 0.01% NaN3, 5% D2O, 5 C; phase separation: 20 mM NaPi pH 7.5
Details: protein: recombinant;recombinant;recombinant; tags: 6xHis-MBP removed by TEV;His tag removed by TEV;His tag removed by TEV; copies: 1;1;2; label: 5' 6-FAM on strand 2; 5' overhang 11 nt on strand 1; other end blunt

B1: RdRp RNA scaffold (minimal RNA hairpin) (dsRNA)
RNA 1: UUUUCAUGCAUCGCGUAGGCUCAUACCGUAUUGAGA
RNA 2: UCUCAAUACGGUAUGAGCCUACGCG
- binding result: binds

Reference: article PMC7699647, “Nucleocapsid protein of SARS-CoV-2 phase separates into RNA-rich polymerase-containing condensates”
